The results in this text go back to paper PMC7566563.

This series addresses Cglo-CDPS-S32A (Candidatus Glomeribacter gigasporarum) (UniProt G2JBB2). The series can be described thus: EMSA. The note with it: 8 mM MgCl2; apparent Kd, 3 experiments; 3'-phenylalanylated; native E. coli modifications (s4U8, D16, D20, psi32, psi39, ms2i6A37, m7G46, acp3U47, T54, psi55); EMSA: 75 nM tRNA, 0.1-15 uM enzyme, 20 min at 4 C in buffer A (10 mM MOPS pH 6.7, 200 mM NaCl, 8 mM MgCl2, 5 mM 2-mercaptoethanol); native 12% gel in 90 mM …. A general note: A gel shift assay detects complexes by their altered migration in electrophoresis.

As to Phe-tRNAPhe, the Kd is 1600 nM.
